According to publication PMC12339945:

Biological target: HIV-1 Tat (E. coli, purified) (HIV-1, UniProt P12506)
Test: NMR titration (1D 1H imino)
Conditions: protein: recombinant; tags: N-terminal His6, stated as cleaved after purification

## GGGAGCUUGAUCCCGGAAACGGUCGAUCGCUCCC (structured_RNA) [HIV Tat RNA aptamer (unlabeled)]
  binding result: binds
